Experimental data taken from publication PMC7152798.

Columns and labels:
[1] = biological target: GST-FMRP C-terminus deleted from the last 89 amino acids which includes the RGG motif (mouse); assay: pull-down; GST-fusion proteins made in yeast, immobilised on glutathione sepharose 4B beads and incubated at 4 °C with lysate of tsA-201 cells transfected with CaV2.2/α2δ-1/β1b; washed four times with ice-cold 1% Triton-PBS; blots with CaV2.2 II-III loop Ab and GST Ab; bands quantified as a percentage of CT
[2] = biological target: GST-FMRP C-terminus deleted from the last 63 amino acids (mouse); assay: as above

Sequence of calcium channel CaV2.2 (Q05152 whole entry): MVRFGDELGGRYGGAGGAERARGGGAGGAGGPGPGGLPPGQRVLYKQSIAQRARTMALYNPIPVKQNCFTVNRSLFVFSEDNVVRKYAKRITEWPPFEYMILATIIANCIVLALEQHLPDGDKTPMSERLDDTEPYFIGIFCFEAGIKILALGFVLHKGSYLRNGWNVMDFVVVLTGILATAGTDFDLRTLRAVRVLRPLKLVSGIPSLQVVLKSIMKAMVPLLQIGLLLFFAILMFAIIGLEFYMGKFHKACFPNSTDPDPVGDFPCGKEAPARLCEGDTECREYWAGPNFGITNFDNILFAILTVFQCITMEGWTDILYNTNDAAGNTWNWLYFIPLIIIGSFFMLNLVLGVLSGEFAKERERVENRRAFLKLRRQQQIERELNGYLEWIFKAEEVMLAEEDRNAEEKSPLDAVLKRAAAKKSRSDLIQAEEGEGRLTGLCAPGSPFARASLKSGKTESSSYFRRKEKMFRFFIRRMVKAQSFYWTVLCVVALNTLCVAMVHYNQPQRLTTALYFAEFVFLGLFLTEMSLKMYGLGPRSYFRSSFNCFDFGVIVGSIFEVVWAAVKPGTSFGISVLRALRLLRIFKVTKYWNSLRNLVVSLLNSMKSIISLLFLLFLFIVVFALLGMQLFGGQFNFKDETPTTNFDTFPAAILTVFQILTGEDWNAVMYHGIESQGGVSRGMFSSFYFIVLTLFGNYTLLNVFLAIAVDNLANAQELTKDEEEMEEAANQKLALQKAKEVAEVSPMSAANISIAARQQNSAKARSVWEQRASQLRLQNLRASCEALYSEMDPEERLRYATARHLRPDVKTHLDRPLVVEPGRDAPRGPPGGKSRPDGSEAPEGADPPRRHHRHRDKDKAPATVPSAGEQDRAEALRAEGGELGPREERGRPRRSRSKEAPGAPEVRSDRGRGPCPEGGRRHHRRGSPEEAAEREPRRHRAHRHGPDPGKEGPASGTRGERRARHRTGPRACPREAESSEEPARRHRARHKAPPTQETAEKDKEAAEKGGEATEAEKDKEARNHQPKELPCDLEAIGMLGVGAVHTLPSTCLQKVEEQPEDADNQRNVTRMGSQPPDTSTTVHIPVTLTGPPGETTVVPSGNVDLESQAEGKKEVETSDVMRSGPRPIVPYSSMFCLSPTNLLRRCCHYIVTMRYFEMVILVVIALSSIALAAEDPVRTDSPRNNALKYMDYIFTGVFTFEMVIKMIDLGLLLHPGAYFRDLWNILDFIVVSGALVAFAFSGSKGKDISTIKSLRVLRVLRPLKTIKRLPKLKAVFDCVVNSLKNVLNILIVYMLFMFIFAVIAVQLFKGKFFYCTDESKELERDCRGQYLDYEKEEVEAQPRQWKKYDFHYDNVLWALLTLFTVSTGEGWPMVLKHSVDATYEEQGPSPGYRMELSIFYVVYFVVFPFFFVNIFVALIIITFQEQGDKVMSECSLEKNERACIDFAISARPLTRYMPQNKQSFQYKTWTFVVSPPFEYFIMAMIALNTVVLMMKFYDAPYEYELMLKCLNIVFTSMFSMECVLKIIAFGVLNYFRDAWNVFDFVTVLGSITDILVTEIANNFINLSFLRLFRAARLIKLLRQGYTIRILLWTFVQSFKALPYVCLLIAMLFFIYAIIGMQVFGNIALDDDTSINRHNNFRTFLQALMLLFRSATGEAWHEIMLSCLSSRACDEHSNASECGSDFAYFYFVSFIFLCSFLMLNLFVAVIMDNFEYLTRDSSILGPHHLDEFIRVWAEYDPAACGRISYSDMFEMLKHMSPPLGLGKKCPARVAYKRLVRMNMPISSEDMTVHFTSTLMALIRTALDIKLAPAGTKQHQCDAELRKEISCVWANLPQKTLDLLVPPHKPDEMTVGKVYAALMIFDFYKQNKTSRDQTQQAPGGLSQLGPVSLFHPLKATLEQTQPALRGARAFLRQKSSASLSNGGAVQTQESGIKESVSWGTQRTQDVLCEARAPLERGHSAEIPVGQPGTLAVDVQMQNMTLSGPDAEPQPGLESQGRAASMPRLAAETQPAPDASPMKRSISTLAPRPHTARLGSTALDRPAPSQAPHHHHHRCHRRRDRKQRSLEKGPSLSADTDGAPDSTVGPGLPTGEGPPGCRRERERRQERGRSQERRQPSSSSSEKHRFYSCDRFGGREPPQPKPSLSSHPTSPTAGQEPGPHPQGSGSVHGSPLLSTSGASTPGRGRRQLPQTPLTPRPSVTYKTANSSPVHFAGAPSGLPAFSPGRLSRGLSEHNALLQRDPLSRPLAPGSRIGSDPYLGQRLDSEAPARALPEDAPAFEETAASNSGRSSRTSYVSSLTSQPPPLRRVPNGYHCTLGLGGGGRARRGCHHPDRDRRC

- reduction of the binding relative to CT [1]: 79.5%
- reduction of the binding relative to CT [2]: 61.7%
Substance: calcium channel CaV2.2 (from UniProt Q05152 1-2339) (natural protein)
